{
  "source": "patent US20130084293A1",
  "about": "(LA JOLLA INSTITUTE FOR ALLERGY AND IMMUNOLOGY, published 2013)",
  "proteins": {"B1": {"name": "C-terminally hexahistidine-tagged mouse HRF (mHRF-His6) (ligand)", "chain": "MIIYRDLISHDELFSDIYKIREIADGLCLEVEGKMVSRTEGAIDDSLIGGNASAEGPEGEGTESTVVTGVDIVMNHHLQETSFTKEAYKKYIKDYMKSLKGKLEEQKPERVKPFMTGAAEQIKHILANFNNYQFFIGENMNPDGMVALLDYREDGVTPFMIFFKDGLEMEKCHHHHHH", "notes": "Expressed in E. coli BL21(DE3) from pET-24a(+)"}},
  "molecular_target": "the molecule itself",
  "assay": "self-association: reducing and non-reducing SDS-PAGE and size exclusion chromatography of purified mHRF-His6",
  "data": [
    {"protein": "B1", "values": [
      {"measurement": "binding result", "result": "binds"}
    ]}
  ]
}
